Experimental data taken from patent US12673971B2, “Amyloid-β aggregation inhibitor, pharmaceutical composition foramyloid-β aggregation disease, and use application of same” (O-FORCE CO., LTD, priority 2020, dated 2026).

Columns and labels:
[1] = test system: C57BL/6 mice; assay: Object recognition test (ORT); type: in vivo; conditions: administration group Aβ25-35(+)/GSGFK(+), day 52 (test over 3 days from day 49), FIG. 6
Experimental: In this example, 2 μL of 0.5 μg/μL Aβ25-35 and 2 μL of 0.25 μg/μL Peptide 2 were directly administered using a micro syringe to the CA1 area of the hippocampus of the brain of the administration group of C57BL/6 mice (7 to 13 months old mice) (n=3). In a similar manner, 2 μL of 0.5 μg/μL Aβ25-35 was directly administered using a micro syringe to the CA1 area of the hippocampus of the brain of the negative control group of C57BL/6 mice (n=3). Neither 2 μL of Aβ25-35 nor Peptide 2 was administered to the positive control group of C57BL/6 mice (n=3). […]
The object recognition test (ORT) from day 49 was conducted as follows. […] For each group, the speed of movement of the mice in the cage was measured, as well as the percentage (%) of time they stayed in the center region of the cage (the inner region being at least 7.5 cm away from a side wall of the cage).
After one day, two identical objects were placed in the cage and the mice were allowed to explore freely for one hour (sample phase). […] Also, the approach time of the mice to each object was measured in each of the sample and test phases. The percentage of the exploration time for the object on the right side with respect to the total exploration time was then determined (100× right side exploration time/total exploration time (%)).

[2] = target: T1, Aβ25-35 (Homo sapiens, UniProt P05067); assay: ThT fluorescence of the solutions administered to the mouse groups; type: biochemical; conditions: 0.5 μg/μL Aβ25-35 and 0.25 μg/μL Peptide 2 mixed in equal amounts, 37° C., day 11, vs Aβ25-35 solution, FIG. 3
T1 construct: The Aβ25-35 is a peptide constituted by 11 amino acid residues consisting of the 25th to 35th amino acid residues
Experimental: In parallel with the administration to the mice in each group, the fluorescence intensity was measured for the solutions administered to each group. Specifically, a mixed solution obtained by mixing 0.5 μg/μL Aβ25-35 and 0.25 μg/μL Peptide 2 in equal amounts, which was the same as that administered to the administration group, and a 0.5 μg/μL Aβ25-35 solution, which was the same as that administered to the negative control group, were each added in an amount of 100 μL per well, and 10 μL of 1 mmol/L ThT was further added to the well immediately before measurement. These reaction solutions were each reacted at 37° C., and the fluorescence intensity was measured as in Example 1 above.

[3] = test system: C57BL/6 mice; assay: Y-maze (short-term memory assessment) test; type: in vivo; conditions: 2 μL of 0.5 μg/μL Aβ25-35 and 2 μL of 0.25 μg/μL Peptide 2 into hippocampal CA1; days 11, 27 and 39; vs negative control group (Aβ25-35 only), FIG. 4
Experimental: In this example, 2 μL of 0.5 μg/μL Aβ25-35 and 2 μL of 0.25 μg/μL Peptide 2 were directly administered using a micro syringe to the CA1 area of the hippocampus of the brain of the administration group of C57BL/6 mice (7 to 13 months old mice) (n=3). In a similar manner, 2 μL of 0.5 μg/μL Aβ25-35 was directly administered using a micro syringe to the CA1 area of the hippocampus of the brain of the negative control group of C57BL/6 mice (n=3). Neither 2 μL of Aβ25-35 nor Peptide 2 was administered to the positive control group of C57BL/6 mice (n=3). Each group was then given a Y-maze (short-term memory assessment) test on days 11, 27, and 39 after administration, and an object recognition test over 3 days starting from day 49. • Administration group (7 months old): Aβ25-35(+)/GSGFK(+) • Negative control group (7 months old): Aβ25-35(+)/GSGFK(−) • Positive control group (13 months old): Aβ25-35(−)/GSGFK(−)
The Y-maze test was conducted in a general manner under the following conditions. That is to say, mice were placed such that their noses faced the wall at an end of one particular arm among the three arms. The mice were allowed to move freely for 10 minutes, and their behavior was captured on a monitor of an analyzer (product name: Time YM1, manufactured by O'hara & Co., Ltd.) to calculate the alternation behavior rate (alternation behavior (%)).

[4] = target: T2, Aβ25-35 aggregates (Homo sapiens, UniProt P05067); assay: Dissociation of pre-formed Aβ25-35 aggregates (ThT fluorescence); type: biochemical; conditions: 40 μL of 10 mmol/L peptide added to 4000 μL reaction solution with aggregates of 0.1 mM Aβ25-35 (24 h, 37° C.); 4 hr vs 0 hr, FIG. 7
T2 construct: The Aβ25-35 is a peptide constituted by 11 amino acid residues consisting of the 25th to 35th amino acid residues
Experimental: A reaction solution with the following composition was prepared and incubated at 37° C. for 24 hours to form aggregates of Aβ25-35. After incubation, the fluorescence intensities of the reaction solution with the following composition to which Aβ25-35 was added and a reaction solution to which water was added instead of Aβ25-35 were measured as in Example 1.
Then, 40 μL of 10 mmol/L Peptide 1 or Peptide 2 was added to 4000 μL of the reaction solution in which the aggregates were formed (0 hr), the mixture was incubated at 37° C., and the change in fluorescence intensity over time was measured (n=3). As a control, a reaction solution to which water was added instead of Peptide 1 and Peptide 2 was also measured at 0 hr in the same way. Then, the percentage (%) of decrease in fluorescence intensity after 4 hr was obtained from the fluorescence intensity at 0 hr.

[5] = target: T1, Aβ25-35; assay: Concentration assay (ThT fluorescence, varied final peptide concentration); type: biochemical; conditions: for fluorescence intensity compared with the negative control: 37° C.
Experimental: The concentrations of Peptide 1 (GSGNR (SEQ ID NO: 1)) and Peptide 2 (GSGFK (SEQ ID NO: 2)) with respect to Aβ25-35 were checked. Unless otherwise indicated, measurements were performed according to (2) above.
First, as for Peptide 2 (GSGFK (SEQ ID NO: 2)), 200 μL of mixed solution with the composition shown in Table 2 below was added per well, 10 μL of 2 mmol/L ThT was further added to the well immediately before measurement, and this reaction solution was incubated at 37° C. The change in fluorescence intensity 4 hours after the start of measurement was measured using the above-mentioned measurement device (n=3). Furthermore, reaction solutions with the following composition but with different final concentrations of Peptide 2 were also measured in the same way. As a negative control, a reaction solution with the following composition to which neither Peptides 1 nor 2 was added was also measured in the same way.
Next, as for Peptide 1 (GSGNR (SEQ ID NO: 1)), 200 μL of mixed solution with the composition shown in Table 2 above was added per well, 10 μL of 2 mmol/L ThT was further added to the well immediately before measurement, and this reaction solution was incubated at 37° C. The change in fluorescence intensity 8 hours after the start of measurement was measured using the above-mentioned measurement device (n=6). Furthermore, reaction solutions with the composition above but with different final concentrations of Peptide 1 were also measured in the same way. As a negative control, a reaction solution with the composition above to which neither Peptides 1 nor 2 was added was also measured in the same way.

[6] = target: T1, Aβ25-35; assay: Aggregation inhibition assay (thioflavin T fluorescence); type: biochemical; conditions: 0.1 mM peptide, 0.1 mM Aβ25-35, 0.1 mM ThT, Tris-HCl pH 7.5, 37° C., FIG. 1; for fluorescence intensity of the reaction solution after 8 and 24 hours: vs negative control; for fluorescence intensity of the reaction solution 4 hours after incubation: vs negative control (Aβ25-35 only)
From the text: An Aβ-derived fragment peptide was used for aggregation of Aβ. Aβ25-35, which has high aggregability, was selected as the fragment peptide. The Aβ25-35 is a peptide constituted by 11 amino acid residues consisting of the 25th to 35th amino acid residues in the full length sequence of human-derived Aβ (GSNKGAIIGLM (SEQ ID NO: 4), hereinafter also referred to as Ab25-35).
The fluorescent dye thioflavin T (ThT) binds to Ab aggregates and emits strong fluorescence upon binding, and thus the increase or inhibition of aggregation can be determined by measuring the fluorescence intensity. Thus, the inhibition of aggregation of Aβ25-35 by Peptide 1 (GSGNR (SEQ ID NO: 1)) and Peptide 2 (GSGFK (SEQ ID NO: 2)) was checked using ThT.
Specifically, a reaction solution with the following composition was prepared and dispensed into wells such that the amount of the reaction solution per well was 300 μL, and incubated at 37° C., and the change in fluorescence intensity over time was measured using a measurement device (product name Cytation5, manufactured by BioTek) (n=3). The measurement wavelengths were set such that the excitation wavelength (ex) was 444 nm and the emission wavelength (em) was 480 nm. As a control, a reaction solution to which water was added instead of Peptide 1 and Peptide 2 was also measured in the same way.

[7] = Peptide 2, with respect to 100 μmol/L Aβ25-35, 4 hours, FIG. 2(A)
[8] = Peptide 1, with respect to 100 μmol/L Aβ25-35, 8 hours, FIG. 2(B)

| Substance | percentage of exploration time for the object on the right side, test phase compared with sample phase [1] | fluorescence intensity of the mixed solution on day 11 [2] | alternation behavior rate (short-term memory) [3] | decrease in fluorescence intensity 4 hours after peptide addition to pre-formed aggregates [4] | fluorescence intensity compared with the negative control ([5]; Peptide 2, 100 μmol/L Aβ25-35, PBS, 4 hours after start of measurement, FIG. 2(A)) | final concentration at which aggregation was inhibited in a particularly excellent manner [5, 7] | final concentration at which aggregation was more effectively inhibited [5, 7] [µmol/L] | final concentration at which aggregation was significantly inhibited sufficiently [5, 7] [µmol/L] | fluorescence intensity of the reaction solution after 8 and 24 hours [6] | fluorescence intensity of the reaction solution 4 hours after incubation [6] | fluorescence intensity compared with the negative control ([5]; Peptide 1, 100 μmol/L Aβ25-35, PBS, 8 hours after start of measurement, FIG. 2(B)) | final concentration at which aggregation was inhibited in a particularly excellent manner [5, 8] | final concentration at which aggregation was significantly inhibited sufficiently [5, 8] [µmol/L] |
| --- | --- | --- | --- | --- | --- | --- | --- | --- | --- | --- | --- | --- | --- |
| GSGFK [Peptide 2] | significant increase in the percentage of exploration time for the object on the right side in the test phase | did not show an increase in fluorescence intensity | short-term memory is maintained as with the positive control group | significant decrease in fluorescence intensity | significantly reduced the fluorescence intensity | around 10 μmol/L | ≥ 10 | ≥ 5 | did not increase after 8 and 24 hours | slightly increased 4 hours after incubation, but it was well below the negative control |  |  |  |
| GSGNR [Peptide 1] |  |  |  | significant decrease in fluorescence intensity |  |  |  |  | decreased significantly compared with the negative control after 8 and 24 hours | had increased 4 hours after incubation | significantly reduced the fluorescence intensity | around 10 μmol/L | ≥ 1 |
